According to US20240409983A1 (published 2024):

How the values were obtained:
[1] = molecular target: 401-01R_6162-C57-1; test: NGS-count immunoassay, capture antibody titration, single-site binding fit; average Kd; antibody pair
[2] = molecular target: 6162-H85-2t_6162-F78-2; test: NGS-count immunoassay, capture antibody titration; average Kd; antibody pair
[3] = molecular target: 6162-B78-8_MAM02-008; test: as above

B1: Analyte (other)
chain: KLTIESTPFNVAEGKEVLLLVHNLPQHLFGYSWYKGERVDGNRQIIGYVIGTQQATPGPAYSGREIIYPNASLLIQNIIQNDTGFYTLHVIKSDLVNEEATGQFRVYPELPKPSISSNNSKPVEDKDAVAFTCEPETQDATYLWWVNNQSLPVSPRLQLSNGNRTLTLFNVTRNDTASYKCETQNPVSARRSDSVILNVLYGPDAPTISPLNTSYRSGENLNLSCHAASNPPAQYSWFVNGTFQQSTQELFIPNITVNNSGSYTCQAHNSDTGLNRTTVTTITVYAEPPKPFITSNNSNPVEDEDAVALTCEPEIQNTTYLWWVNNQSLPVSPRLQLSNDNRTLTLLSVTRNDVGPYECGIQNELSVDHSDPVILNVLYGPDDPTISPSYTYYRPGVNLSLSCHAASNPPAQYSWLIDGNIQQHTQELFISNITEKNSGLYTCQANNSASGHSRTTVKTITVSAELPKPSISSNNSKPVEDKDAVAFTCEPEAQNTTYLWWVNGQSLPVSPRLQLSNGNRTLTLFNVTRNDARAYVCGIQNSVSANRSDPVTLDVLYGPDTPIISPPDSSYLSGANLNLSCHSASNPSPQYSWRINGIPQQHTQVLFIAKITPNNNGTYACFVSNLATGRNNSIVKSITVSASGTSPGLSA
Kd [1]: 0.906 nM
Kd [2]: 0.352 nM
Kd [3]: 1.94 nM
